The RNAGym collection of RNA variant scans (doi:10.1101/gr.219683.116)

B1: mRNA-splicing (parent)
chain: AGUUGCUGCUGGGAGCUCCAGCACAGUGAAAUGGACAGAAGGGCAGAGCAA

Variants of: B1
Experiment: exon inclusion enrichment index; higher = more inclusion; WT1 exon 5 minigene, HEK293

Row | Variant | exon inclusion enrichment index
1 | G5A C6G U7G C9A C24A A25G | 0.0011
2 | G5A C6G U7G C9A C24A A25C | 0.0413
3 | G5A C6G U7G C9A C24A A25U | 0.00166
4 | G5A C6G U7G C9A A45U G46U | 0.000766
5 | G5A C6G U7G C9A A45U G46C | 0.00134
6 | G5A C6G U7G C9A A45U G46A | 0.00219
7 | G5A C6G U7G C9A C18G | 0.00165
8 | G5A C6G U7G C9A C18A | 0.000986
9 | G5A C6G U7G C9A C18U | 0.000744
10 | G5A C6G U7G C9A U17A C18U | 0.00863
11 | G5A C6G U7G C9A U17A C18A | 0.00127
12 | G5A C6G U7G C9A U17A C18G | 0.00136
13 | G5A C6G U7G C9A G38A A39C | 0.0024
14 | G5A C6G U7G C9A G38A A39U | 0.00074
15 | G5A C6G U7G C9A G38A A39G | 0.000899
16 | G5A C6G U7G C9A U17G C18G | 0.00151
17 | G5A C6G U7G C9A U17G C18U | 0.00166
18 | G5A C6G U7G C9A U17G C18A | 0.00242
19 | G5A C6G U7G C9A G34A | 0.00215
20 | G5A C6G U7G C9A G34U | 0.000859
21 | G5A C6G U7G C9A G34C | 0.000973
22 | G5A C6G U7G C9A G43U C44A | 0.00143
23 | G5A C6G U7G C9A G43U C44G | 0.000892
24 | G5A C6G U7G C9A G43U C44U | 0.00214

Row | Variant | exon inclusion enrichment index
25 | G5A C6G U7G C9A C44G A45C | 0.00471
26 | G5A C6G U7G C9A C44G A45U | 0.00421
27 | G5A C6G U7G C9A C44G A45G | 0.00929
28 | G5A C6G U7G C9A U27G | 0.000925
29 | G5A C6G U7G C9A U27A | 0.00261
30 | G5A C6G U7G C9A U27C | 0.00674
31 | G5A C6G U7G C9A G43C C44A | 0.0166
32 | G5A C6G U7G C9A G43C C44U | 0.000823
33 | G5A C6G U7G C9A G43C C44G | 0.0277
34 | G5A C6G U7G C9A G12C | 0.00529
35 | G5A C6G U7G C9A G12A | 0.000801
36 | G5A C6G U7G C9A G12U | 0.00152
37 | G5A C6G U7G C9A A45C G46U | 0.0014
38 | G5A C6G U7G C9A A45C G46C | 0.00399
39 | G5A C6G U7G C9A G34U A35U | 0.00101
40 | G5A C6G U7G C9A G34U A35G | 0.00131
41 | G5A C6G U7G C9A G34U A35C | 0.000948
42 | G5A C6G U7G C9A C36A A37C | 0.00188
43 | G5A C6G U7G C9A C36A A37U | 0.00282
44 | G5A C6G U7G C9A C36A A37G | 0.00191
45 | G5A C6G U7G C9A G13U A14G | 0.00052
46 | G5A C6G U7G C9A G13U A14U | 0.000524
47 | G5A C6G U7G C9A G13U A14C | 0.00403
48 | G5A C6G U7G C9A G33U | 0.000815

Row | Variant | exon inclusion enrichment index
49 | G5A C6G U7G C9A G33C | 0.00196
50 | G5A C6G U7G C9A G33A | 0.000879
51 | G5A C6G U7G C9A U27G G28U | 0.0007
52 | G5A C6G U7G C9A U27G G28C | 0.00084
53 | G5A C6G U7G C9A U27G G28A | 0.00077
54 | G5A C6G U7G C9A C24G | 0.00883
55 | G5A C6G U7G C9A C24A | 0.00195
56 | G5A C6G U7G C9A C24U | 0.00094
57 | G5A C6G U7G C9A G34C A35C | 0.00219
58 | G5A C6G U7G C9A G34C A35G | 0.00232
59 | G5A C6G U7G C9A G34C A35U | 0.00103
60 | G5A C6G U7G C9A C18U C19G | 0.00111
61 | G5A C6G U7G C9A C18U C19U | 0.00102
62 | G5A C6G U7G C9A C18U C19A | 0.00106
63 | G5A C6G U7G C9A G33U G34C | 0.00131
64 | G5A C6G U7G C9A G33U G34A | 0.000839
65 | G5A C6G U7G C9A G33U G34U | 0.000939
66 | G5A C6G U7G C9A G13U | 0.000555
67 | G5A C6G U7G C9A G13A | 0.0025
68 | G5A C6G U7G C9A G13C | 0.00103
69 | G5A C6G U7G C9A G38U A39U | 0.000926
70 | G5A C6G U7G C9A G38U A39G | 0.00105
71 | G5A C6G U7G C9A G38U A39C | 0.000723
72 | G5A C6G U7G C9A G21C C22A | 0.00656

Row | Variant | exon inclusion enrichment index
73 | G5A C6G U7G C9A G21C C22U | 0.00338
74 | G5A C6G U7G C9A G21C C22G | 0.00387
75 | G5A C6G U7G C9A U10C G11C | 0.0142
76 | G5A C6G U7G C9A U10C G11U | 0.0108
77 | G5A C6G U7G C9A U10C G11A | 0.0011
78 | G5A C6G U7G C9A C18G C19A | 0.00169
79 | G5A C6G U7G C9A C18G C19U | 0.00119
80 | G5A C6G U7G C9A C18G C19G | 0.0012
81 | G5A C6G U7G C9A G15U C16A | 0.00611
82 | G5A C6G U7G C9A G15U C16U | 0.000743
83 | G5A C6G U7G C9A G15U C16G | 0.00106
84 | G5A C6G U7G C9A G28U | 0.000687
85 | G5A C6G U7G C9A G28A | 0.000725
86 | G5A C6G U7G C9A G28C | 0.00255
87 | G5A C6G U7G C9A G42C G43U | 0.00749
88 | G5A C6G U7G C9A G42C G43C | 0.0141
89 | G5A C6G U7G C9A G42C G43A | 0.0348
90 | G5A C6G U7G C9A G38C A39G | 0.00244
91 | G5A C6G U7G C9A G38C A39U | 0.000965
92 | G5A C6G U7G C9A G38C A39C | 0.00466
93 | G5A C6G U7G C9A G38C | 0.000603
94 | G5A C6G U7G C9A G38A | 0.000584
95 | G5A C6G U7G C9A G38U | 0.000717
96 | G5A C6G U7G C9A G15U | 0.000857

Row | Variant | exon inclusion enrichment index
97 | G5A C6G U7G C9A G15A | 0.00165
98 | G5A C6G U7G C9A G15C | 0.00583
99 | G5A C6G U7G C9A C22A A23U | 0.00131
100 | G5A C6G U7G C9A C22A A23C | 0.0031
101 | G5A C6G U7G C9A C22A A23G | 0.000928
102 | G5A C6G U7G C9A G21A | 0.00299
103 | G5A C6G U7G C9A G21U | 0.00149
104 | G5A C6G U7G C9A G21C | 0.00079
105 | G5A C6G U7G C9A C19A A20G | 0.00156
106 | G5A C6G U7G C9A C19A A20U | 0.00128
107 | G5A C6G U7G C9A C19A A20C | 0.00131
108 | G5A C6G U7G C9A G11A G12U | 0.000779
109 | G5A C6G U7G C9A G11A G12C | 0.00102
110 | G5A C6G U7G C9A G11A G12A | 0.00145
111 | G5A C6G U7G C9A C22G | 0.00114
112 | G5A C6G U7G C9A C22A | 0.00351
113 | G5A C6G U7G C9A C22U | 0.000826
114 | G5A C6G U7G C9A G21A C22G | 0.00502
115 | G5A C6G U7G C9A G21A C22A | 0.000944
116 | G5A C6G U7G C9A G21A C22U | 0.00087
117 | G5A C6G U7G C9A G11U G12C | 0.00339
118 | G5A C6G U7G C9A G11U G12U | 0.000733
119 | G5A C6G U7G C9A G11U G12A | 0.00148
120 | G5A C6G U7G C9U U10G | 0.493

Row | Variant | exon inclusion enrichment index
121 | G5A C6G U7G C9U U10A | 0.00106
122 | G5A C6G U7G C9U U10C | 0.00564
123 | G5A C6G U7G C9A C36U | 0.00174
124 | G5A C6G U7G C9A C36G | 0.000918
125 | G5A C6G U7G C9A C36A | 0.000983
126 | G5A C6G U7G C9A U32C | 0.00508
127 | G5A C6G U7G C9A U32A | 0.000886
128 | G5A C6G U7G C9A U32G | 0.00176
129 | G5A C6G U7G C9A G26A U27G | 0.00208
130 | G5A C6G U7G C9A G26A U27A | 0.00661
131 | G5A C6G U7G C9A G26A U27C | 0.0139
132 | G5A C6G U7G C9A U32A G33C | 0.0011
133 | G5A C6G U7G C9A U32A G33A | 0.00102
134 | G5A C6G U7G C9A U32A G33U | 0.00206
135 | G5A C6G U7G C9A G42U G43U | 0.00686
136 | G5A C6G U7G C9A G42U G43C | 0.0126
137 | G5A C6G U7G C9A G42U G43A | 0.00514
138 | G5A C6G U7G C9G | 0.00209
139 | G5A C6G U7G C9U | 0.00241
140 | G5A C6G U7G C9A C16G U17A | 0.00122
141 | G5A C6G U7G C9A C16G U17C | 0.00106
142 | G5A C6G U7G C9A C16G U17G | 0.0104
143 | G5A C6G U7G C9A U10A | 0.00068
144 | G5A C6G U7G C9A U10G | 0.00589

Row | Variant | exon inclusion enrichment index
145 | G5A C6G U7G C9A U10C | 0.00449
146 | G5A C6G U7G C9A A47C G48U | 0.00274
147 | G5A C6G U7G C9A A47C G48C | 0.00224
148 | G5A C6G U7G C9A A47C G48A | 0.011
149 | G5A C6G U7G C9A G11C G12A | 0.000679
150 | G5A C6G U7G C9A G11C G12U | 0.00113
151 | G5A C6G U7G C9A G11C G12C | 0.00959
152 | G5A C6G U7G C9A U32G G33A | 0.00113
153 | G5A C6G U7G C9A U32G G33U | 0.000945
154 | G5A C6G U7G C9A U32G G33C | 0.00522
155 | G5A C6G U7G C9A G13A A14C | 0.0219
156 | G5A C6G U7G C9A G13A A14G | 0.00529
157 | G5A C6G U7G C9A G13A A14U | 0.0021
158 | G5A C6G U7G C9A C36U A37G | 0.00557
159 | G5A C6G U7G C9A C36U A37C | 0.000996
160 | G5A C6G U7G C9A C36U A37U | 0.00084
161 | G5A C6G U7G C9A C44G | 0.00206
162 | G5A C6G U7G C9A C44A | 0.00167
163 | G5A C6G U7G C9A C44U | 0.000609
164 | G5A C6G U7G G8A | 0.0142
165 | G5A C6G U7G C9A G42A | 0.025
166 | G5A C6G U7G C9A G42U | 0.00622
167 | G5A C6G U7G C9A G42C | 0.0041
